Assays:
HuR (ELAV, ELAVL1) [1] = biological target: T1, HuR (ELAV, ELAVL1) (Homo sapiens, UniProt Q15717 SEQ:1-326); assay: SPR; GST-HuR captured on CM5 chip; HBS-EP buffer; conditions: tags: N-terminal GST (pGEX-5X-1), E. coli BL21; 3-pronged stem-loop (predicted)
Source text: Specific protein-RNA interactions were detected by Surface Plasmon Resonance using the BIACore X optical biosensor (Pharmacia Biosensor AB, Upsala, Sweden).
The GST-fusion proteins of interest (GST alone or GST-ELAV (HuR)) were immobilized onto the surface of a CM5 Chip (Pharmacia Biosensor AB, Upsala, Sweden) by using the BIACore GST Capture Kit (Pharmacia Biosensor AB, Upsala, Sweden), according to the manufacturers instructions, until a change of at least 1,000 resonance units (RU) was detectable.
1 μg of in vitro transcribed RNA (using the T7/SP6 Riboprobe Kit, Promega, Mannheim, Germany) was diluted in a total volume of 80 μl HBS-EP buffer (10 mM HEPES, 150 mM NaCl, 3 mM EDTA, 0.005% (v/v) polysorbate 20) and was allowed to flow over the chip at a flow rate of 50μl/minute. The standard running buffer was HBS-EP buffer. The sensor surface was regenerated between assays by injecting 30 μl of 0.5 M NaCl to remove bound analyte.

HuR (ELAV, ELAVL1) [2] = biological target: T1, HuR (ELAV, ELAVL1); assay: EMSA; conditions: tags: N-terminal GST (pGEX-5X-1), E. coli BL21, label: 32P-UTP

T1 sequence (Q15717 whole entry T180A): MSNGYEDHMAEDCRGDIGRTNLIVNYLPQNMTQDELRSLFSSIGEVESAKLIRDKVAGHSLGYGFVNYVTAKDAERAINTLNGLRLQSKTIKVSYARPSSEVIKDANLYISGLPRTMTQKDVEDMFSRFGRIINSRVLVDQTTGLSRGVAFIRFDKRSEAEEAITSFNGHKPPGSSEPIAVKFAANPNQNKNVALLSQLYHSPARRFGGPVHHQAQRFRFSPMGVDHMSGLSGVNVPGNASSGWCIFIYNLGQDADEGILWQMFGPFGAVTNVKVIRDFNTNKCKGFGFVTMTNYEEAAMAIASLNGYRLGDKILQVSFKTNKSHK

B1: CD83 RNA nt466-615 (stem-loop-2) (ssRNA)
RNA: UUAACACUCAUCAUUUUCACUUGUAAGUUUGCACGGCUACAGAGUAUCUUCCCAGAUUUUUCUAAAGCUGGCAUGGAACGAGCUUUUCUCCCAGUUACCUCCCCAAAUAAGCAUUUAGGGCUAGUGACUCCUCACAAGACAGAACUGGUA
B1: binds (HuR (ELAV, ELAVL1) [1]).

B2: CD83 RNA nt295-465 (stem-loop-1) (ssRNA)
RNA: AGCUGCAACUCGGGGACAUACAGGUGCACUCUGCAGGACCCGGAUGGGCAGAGAAACCUAAGUGGCAAGGUGAUCUUGAGAGUGACAGGAUGCCCUGCACAGCGUAAAGAAGAGACUUUUAAGAAAUACAGAGCGGAGAUUGUCCUGCUGCUGGCUCUGGUUAUUUUCUAC
B2: binds (HuR (ELAV, ELAVL1) [2]; single stem-loop (nt412-465, predicted)).

B3: CD83 RNA nt466-618 (stem-loop-2) (ssRNA)
RNA: UUAACACUCAUCAUUUUCACUUGUAAGUUUGCACGGCUACAGAGUAUCUUCCCAGAUUUUUCUAAAGCUGGCAUGGAACGAGCUUUUCUCCCAGUUACCUCCCCAAAUAAGCAUUUAGGGCUAGUGACUCCUCACAAGACAGAACUGGUAUGA
B3: binds (HuR (ELAV, ELAVL1) [2]; 3-pronged stem-loop (predicted)).

Reference: patent publication US20020165186, “Compounds that affect CD83 expression, pharmaceutical compositions comprising said compounds and methods for identifying said compounds” (published 2002)
